Drawing on the supplement of paper PMC10567573, this text covers protein stability index for 63 sequences.

This data set can be described thus: protein stability index of a GFP-peptide fusion (GPS, HEK-293T) (PSI 1-6); higher = more stable.
Where [1] appears, read: treatment: DMSO, c terminus: a fixed tail appended.
Where [2] appears, read: treatment: MLN4924 1 uM, 8 h, c terminus: a fixed tail appended.

± gives the standard deviation.
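Further: 24-mer peptide tiles fused after GFP, lentivirally expressed, FACS-sorted into six equal bins by GFP/DsRed ratio, decoded by Illumina sequencing, PSI is the read-weighted mean bin number.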

For the sequence VKQEIAEMRIPALNAYMKSLLSLP [NCF4], the protein stability index runs as follows: under setting [1], 2.27 ± 0.34; under setting [2], 2.36 ± 0.28.
On the same counts, the results for VLAAKERRCGELKRKLGLTALVGL [TPD52L3] are 2.44 ± 0.24 and 2.07 ± 0.23.
As to VLKRQRKRRVALSPVTENSTSLSF [MYBL2], the protein stability index came to 3.59 ± 0.22 under setting [1] and 3.5 ± 0.14 under setting [2].
For VLQDGCVFEKAGVSISVVHGNLSE [CPOX], the protein stability index is, setting by setting: under setting [1], 3.21 ± 0.32; under setting [2], 3.05 ± 0.53.
The corresponding values for VLSSEQEFQMFPKSRLSSVSVTYC [ETS2] are 2.21 ± 0.28 and 2.23 ± 0.3.
In turn, VMLGAGGVGKSAMTMQFISHRFPE [RIT1] showed a protein stability index under setting [1] of 2.33 ± 0.34 and a protein stability index under setting [2] of 2.12 ± 0.34.
VMYRIGCLRDDVVFFIYLYQRWIY [CLPTM1]: the protein stability index runs as follows: under setting [1], 2.93 ± 0.66; under setting [2], 2.71 ± 0.32.
The corresponding values for VNPTGNLPMWSNQTWNNSTWSNQT [NANOGP8] are 2.75 ± 0.2 and 2.98 ± 0.35.
On the same counts, the results for VPGGAGPCATVSVFPGARLLTIGD [CARM1] are 2.73 ± 0.43 and 2.53 ± 0.48.
In the case of VPQPRPPGARTRAGAARVARWRRL [FBXO33], the protein stability index is 4.39 ± 0.42 under setting [1] and 4.76 ± 0.21 under setting [2].
On the same counts, the results for VPSEWLSSVYKQQWFAMLRAEQDS [GMCL1] are 2.47 ± 0.19 and 2.43 ± 0.17.
As to VQEDLEAEFQSLFSLLEELKEGML [FSD1], the protein stability index reads like this: under setting [1], 2.99 ± 0.57; under setting [2], 3.01 ± 0.53.
On the same counts, the results for VQSIELQRPRFITSGGSNIIYVAS [VPS39] are 2.35 ± 0.44 and 2 ± 0.22.
On the same counts, the results for VRIQNPSLRENDFIEIELDRQELT [ANKRD40] are 3.04 ± 0.41 and 3.26 ± 0.44.
Consider VRQPILQYRWDMMHRLGEPQARMR [BEX1], for which the protein stability index runs as follows: under setting [1], 2.95 ± 0.21; under setting [2], 3.22 ± 0.29.
The corresponding values for VRRGHSHLAPSEAKAADSPTRNDL are 4.96 ± 0.16 and 4.9 ± 0.2.
The corresponding values for VSISISGSSRPCLDFLQEVTRQPR [ASB7] are 1.93 ± 0.48 and 2.05 ± 0.3.
On the same counts, the results for VSMEIFFKAWLHNSGTDQEQIHLL [M1AP] are 2.41 ± 0.52 and 2.21 ± 0.27.
In the case of VSVESQQVQQVEVEATVKPELTAA [PRPH], the protein stability index was 5.23 ± 0.089 under setting [1] and 5.25 ± 0.12 under setting [2].
The corresponding values for VTATDQKVEKMLISSIKEKYPSHS [IMPA1] are 3.94 ± 0.14 and 4.27 ± 0.23.
Consider VTGPDNGVRESETEQGFGEDLEDL [NFE2L1], for which the protein stability index by setting is: under setting [1], 5.79 ± 0.27; under setting [2], 5.62 ± 0.35.
The corresponding values for VTIKHVACGDFFTACLTDRGIIMT [NEK8] are 2.96 ± 0.5 and 2.63 ± 0.35.
Take VTLALLGSYTVQSELGDYDPDECG [EPB41L3]: the protein stability index came out at 2.46 ± 0.4 under setting [1] and 2.62 ± 0.27 under setting [2].
On the same counts, the results for VVAVHVVLALFVYVAWNEGSRQWR [VMA21] are 2.84 ± 0.3 and 2.88 ± 0.16.
For VWKHGITPPLKNVRKKRFRKTQKK [TAF7L], the protein stability index reads like this: under setting [1], 3.46 ± 0.16; under setting [2], 3.86 ± 0.17.
The corresponding values for VYSDLCEAAEAVRPEERKTCRNPA [ADAMTSL2] are 4.83 ± 0.21 and 4.5 ± 0.49.
On to WAMRRSYEAIAKHNQVEAAWLEGR [TRIM35], for which the protein stability index under setting [1] is 2.37 ± 0.12 and the protein stability index under setting [2] came out at 2.73 ± 0.3.
WDQVSRLHEVLTEVVPIHGRGNFP [TENT5C] registered a protein stability index under setting [1] of 2.59 ± 0.28 and a protein stability index under setting [2] of 2.67 ± 0.17.
WELREKQQLAAEPVPTGFFNMWGF [WDR41]: the protein stability index runs as follows: under setting [1], 2.01 ± 0.11; under setting [2], 2.37 ± 0.23.
On the same counts, the results for WEYSSSIQNSDNDLPVVQGSSSFS [TRIM29] are 4.61 ± 0.25 and 4.42 ± 0.36.
On the same counts, the results for WIEHSKLREINFKIVEFNPMVLKG [GLT8D2] are 2.16 ± 0.1 and 2.35 ± 0.14.
With WLSANPCPHCGDRTFYDPEPILCP [PRAME], the protein stability index amounted to 2.45 ± 0.19 under setting [1] and 2.69 ± 0.45 under setting [2].
As to WQPAVPLMHMLHLSGALDFPRQS [SPATS1], the protein stability index amounted to 2.9 ± 0.38 (treatment: DMSO, c terminus: native) and 2.73 ± 0.48 (treatment: MLN4924 1 uM, 8 h, c terminus: native).
With WTNQQKLYSRTGDIVEFVCKSGYH [CFHR2], the protein stability index under setting [1] was 2.46 ± 0.35 and the protein stability index under setting [2] amounted to 2.5 ± 0.33.
The corresponding values for WTRNPDDITQEEYGEFYKSLTNDW [HSP90AB1] are 3.81 ± 0.15 and 3.82 ± 0.41.
The corresponding values for WVKGSVPPPLDQYVKFDAVSGDYY [CLPTM1] are 2.79 ± 0.24 and 2.72 ± 0.28.
Regarding WYTKSFGHLCAAEVVKIRDSFSNQ [DLC1], the protein stability index by setting is: under setting [1], 2.56 ± 0.78; under setting [2], 2.09 ± 0.49.
As for YAFVGDYSGQITLLKLEQNTCSVI [WDFY1], the protein stability index is, setting by setting: under setting [1], 2.94 ± 0.65; under setting [2], 2.72 ± 0.58.
Take YAMKYMNKQKCVERNEVRNVFKEL [STK32A]: the protein stability index is, setting by setting: under setting [1], 2.07 ± 0.41; under setting [2], 2.24 ± 0.62.
The corresponding values for YCKNESGSRSNGMWAHSMTVQDYQ [ATE1] are 2.35 ± 0.45 and 2.7 ± 0.37.
The corresponding values for YDTTLALGHAAAFSDDCDLPSAQD [GLT8D2] are 5.33 ± 0.2 and 5.31 ± 0.3.
Regarding YFITLGTEIAEQEGNQKGEQATSL [KCNA1], the protein stability index by setting is: under setting [1], 3.79 ± 0.1; under setting [2], 3.84 ± 0.24.
On the same counts, the results for YFKEAELKDLLLQVGRGLRYIHSM [WEE1] are 2.48 ± 0.8 and 2.15 ± 0.34.
The corresponding values for YFTDTDELQLEAANETYENNFDNL [ATF6] are 4.66 ± 0.14 and 4.337 ± 0.033.
As for YGGGLGGGFGGGFAGGFVDFGACD [KRT13], the protein stability index reads like this: under setting [1], 2.39 ± 0.46; under setting [2], 2.14 ± 0.67.
Consider YGVKSPLSLIARFSPIAIDGMSGL [ELAVL3], for which the protein stability index amounted to 2.41 ± 0.091 under setting [1] and 2.35 ± 0.33 under setting [2].
The corresponding values for YIGSIMKGGAVAADGRIEPGDMLL [DVL3] are 2.34 ± 0.22 and 2.57 ± 0.43.
The corresponding values for YILECDHHGGDYKHWREWGSHAQT [CRYBA1] are 2.32 ± 0.15 and 2.43 ± 0.51.
The corresponding values for YIRAPPRSKIYLRFLDYEMQNSNE [NETO1] are 2.28 ± 0.16 and 2.44 ± 0.22.
Turning to YKGRQLQGCPGAKKHEFLTSVLDA [SMOC2], the protein stability index turned out to be 3.39 ± 0.42 under setting [1] and 3.73 ± 0.73 under setting [2].
Take YKILLDVKTRLEQEIATYRRLLEG [KRT17]: the protein stability index is, setting by setting: under setting [1], 2.32 ± 0.14; under setting [2], 2.39 ± 0.37.
On the same counts, the results for YNENVYTEDGKLDIWSKSNYQVFQ [MED27] are 2.5 ± 0.42 and 2.97 ± 0.4.
The corresponding values for YNIPHGPVVGSTRRLYEKKIFEYE [EMD] are 3.18 ± 0.29 and 3.23 ± 0.14.
For the sequence YQQLEDDKLSQKSSSSKLSRSPLK [EPB41L3], the protein stability index came out at 4.94 ± 0.6 under setting [1] and 5.04 ± 0.28 under setting [2].
The corresponding values for YSALSCTSDASFHPAFLPQRQAIK [KCNG1] are 2.78 ± 0.23 and 3.18 ± 0.19.
For the sequence YSHRETVNGSWYIQDLCEMLGKYG [CASP6], the protein stability index reads like this: under setting [1], 1.93 ± 0.39; under setting [2], 2.1 ± 0.35.
In the case of YSHSSTRDGRRDRYSSDTTPLLNG [GOSR1], the protein stability index runs as follows: under setting [1], 4.28 ± 0.4; under setting [2], 4.31 ± 0.11.
The corresponding values for YSIDQEFLKEYFPIEVVTEGLLNT [NLN] are 2.79 ± 0.24 and 3.19 ± 0.53.
For the sequence YSRRLQVQERLTKQIAVAITEALR [GCH1], the protein stability index by setting is: under setting [1], 2.34 ± 0.47; under setting [2], 2.19 ± 0.38.
The corresponding values for YTSGTTGIPKGVMLSHDNITWIAG [ACSBG2] are 2.37 ± 0.36 and 2.21 ± 0.31.
On the same counts, the results for YWRYDEYKRSMDPGYPKMIAHDFP [MMP1] are 2.29 ± 0.22 and 2.18 ± 0.49.
The corresponding values for YYAKRNALRAAEVWMDDFKSHVYM [GALNT9] are 2.24 ± 0.44 and 2.12 ± 0.26.
Regarding YYIRYRGAVYADSGNFERCIRLWK [FEM1A], the protein stability index reads like this: under setting [1], 2.59 ± 0.35; under setting [2], 2.5 ± 0.57.
